Consider eleven molecules from patent publication US20180273587A1 (AILERON THERAPEUTICS, published 2018).

What all share (assay): Ki table, method not stated
The target in assay [1] is T1, MCL-1 (UniProt Q07820 172-327, limits assumed).
T1 construct: also called Myeloid cell leukemia 1

Assay [2] deals with BCL-XL (UniProt Q07817 1-209).
The target of assay [3] is BCL-2 (UniProt P10415 1-217, limits assumed).

Starred links: 1 amine or outer side, 2 acyl side, 3 side chain; linkers in the order of their positions; H or OH if unused. Positions of bridges follow the written chain, without caps; N, C: chain ends. Non-standard residues stand in square brackets, D forms with d. Gly(1-adamantyl) = N[C@H](C(=O)O)C12CC3CC(CC(C3)C1)C2; hhL = hhLeu, CC(C)CCC[C@H](N[*:1])C(=O)[*:2]; R8 = C=CCCCCCC[C@@](C)(N)C(=O)O; Cha = N[C@@H](CC1CCCCC1)C(=O)O; S5 = C=CCCC[C@](C)(N)C(=O)O

T1 sequence (Q07820 172-327 limits assumed): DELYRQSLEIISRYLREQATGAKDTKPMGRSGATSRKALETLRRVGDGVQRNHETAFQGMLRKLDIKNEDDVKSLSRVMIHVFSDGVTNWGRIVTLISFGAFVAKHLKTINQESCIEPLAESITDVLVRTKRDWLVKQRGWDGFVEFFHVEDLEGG
BCL-XL, sequence (Q07817 1-209): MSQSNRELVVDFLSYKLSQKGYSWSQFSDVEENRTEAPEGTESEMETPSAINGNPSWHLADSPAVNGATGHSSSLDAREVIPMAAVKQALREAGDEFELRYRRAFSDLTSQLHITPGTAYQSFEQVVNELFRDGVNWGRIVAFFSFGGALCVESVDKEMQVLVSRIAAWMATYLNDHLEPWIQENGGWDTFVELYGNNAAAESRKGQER
BCL-2, sequence (P10415 1-217 limits assumed): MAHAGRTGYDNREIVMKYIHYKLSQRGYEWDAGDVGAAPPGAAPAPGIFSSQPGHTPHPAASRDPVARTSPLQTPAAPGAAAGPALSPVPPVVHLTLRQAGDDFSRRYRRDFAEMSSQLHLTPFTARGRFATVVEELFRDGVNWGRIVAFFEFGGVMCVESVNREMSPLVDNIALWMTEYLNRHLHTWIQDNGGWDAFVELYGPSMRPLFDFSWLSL

B1: SEQ ID NO: 1667 (peptide)
peptide: Ac-IWIAQALR[R8]AGDAFN[S5]YYA-NH2
modifications: staple 9-16
SMILES: CC[C@H](C)[C@H](NC(C)=O)C(=O)N[C@@H](Cc1c[nH]c2ccccc12)C(=O)N[C@H](C(=O)N[C@@H](C)C(=O)N[C@@H](CCC(N)=O)C(=O)N[C@@H](C)C(=O)N[C@@H](CC(C)C)C(=O)N[C@@H](CCCNC(=N)N)C(=O)N[C@]1(C)CCCCCCC=CCCC[C@@](C)(C(=O)N[C@@H](Cc2ccc(O)cc2)C(=O)N[C@@H](Cc2ccc(O)cc2)C(=O)N[C@@H](C)C(N)=O)NC(=O)[C@H](CC(N)=O)NC(=O)[C@H](Cc2ccccc2)NC(=O)[C@H](C)NC(=O)[C@H](CC(=O)O)NC(=O)CNC(=O)[C@H](C)NC1=O)[C@@H](C)CC
With B1, the Ki – broadly, the dissociation constant of the complex between target and ligand, obtained from inhibition or displacement – in assay [1] came to 183 nM; in assay [2] it was 18.1 nM; in assay [3] it was 59.6 nM.

B2: SEQ ID NO: 1678 (peptide)
peptide: Ac-IW[hhL]AQALR[R8]IGDAFN[S5]YYA-NH2
modifications: staple 9-16
SMILES: CC[C@H](C)[C@H](NC(C)=O)C(=O)N[C@@H](Cc1c[nH]c2ccccc12)C(=O)N[C@@H](CCCC(C)C)C(=O)N[C@@H](C)C(=O)N[C@@H](CCC(N)=O)C(=O)N[C@@H](C)C(=O)N[C@@H](CC(C)C)C(=O)N[C@@H](CCCNC(=N)N)C(=O)N[C@]1(C)CCCCCCC=CCCC[C@@](C)(C(=O)N[C@@H](Cc2ccc(O)cc2)C(=O)N[C@@H](Cc2ccc(O)cc2)C(=O)N[C@@H](C)C(N)=O)NC(=O)[C@H](CC(N)=O)NC(=O)[C@H](Cc2ccccc2)NC(=O)[C@H](C)NC(=O)[C@H](CC(=O)O)NC(=O)CNC(=O)[C@H]([C@@H](C)CC)NC1=O
notes: also called Ac-IWhhLAQALR$r8IGDAFN$YYA-NH2
With B2, the Ki in assay [1] was 21.2 nM; in assay [2] it was 11.9 nM; in assay [3] it was 161 nM.

B3: SEQ ID NO: 1672 (peptide)
peptide: Ac-IWFAQALR[R8]IGDQFN[S5]YYA-NH2
modifications: staple 9-16
SMILES: CC[C@H](C)[C@H](NC(C)=O)C(=O)N[C@@H](Cc1c[nH]c2ccccc12)C(=O)N[C@@H](Cc1ccccc1)C(=O)N[C@@H](C)C(=O)N[C@@H](CCC(N)=O)C(=O)N[C@@H](C)C(=O)N[C@@H](CC(C)C)C(=O)N[C@@H](CCCNC(=N)N)C(=O)N[C@]1(C)CCCCCCC=CCCC[C@@](C)(C(=O)N[C@@H](Cc2ccc(O)cc2)C(=O)N[C@@H](Cc2ccc(O)cc2)C(=O)N[C@@H](C)C(N)=O)NC(=O)[C@H](CC(N)=O)NC(=O)[C@H](Cc2ccccc2)NC(=O)[C@H](CCC(N)=O)NC(=O)[C@H](CC(=O)O)NC(=O)CNC(=O)[C@H]([C@@H](C)CC)NC1=O
With B3, the Ki came out at 29.3 nM in assay [1], 25.9 nM in assay [2] and 205 nM in assay [3].

B4: SEQ ID NO: 1668 (peptide)
peptide: Ac-IWIAQALR[R8]AGDQFN[S5]YYA-NH2
modifications: staple 9-16
SMILES: CC[C@H](C)[C@H](NC(C)=O)C(=O)N[C@@H](Cc1c[nH]c2ccccc12)C(=O)N[C@H](C(=O)N[C@@H](C)C(=O)N[C@@H](CCC(N)=O)C(=O)N[C@@H](C)C(=O)N[C@@H](CC(C)C)C(=O)N[C@@H](CCCNC(=N)N)C(=O)N[C@]1(C)CCCCCCC=CCCC[C@@](C)(C(=O)N[C@@H](Cc2ccc(O)cc2)C(=O)N[C@@H](Cc2ccc(O)cc2)C(=O)N[C@@H](C)C(N)=O)NC(=O)[C@H](CC(N)=O)NC(=O)[C@H](Cc2ccccc2)NC(=O)[C@H](CCC(N)=O)NC(=O)[C@H](CC(=O)O)NC(=O)CNC(=O)[C@H](C)NC1=O)[C@@H](C)CC
Consider B4, for which the Ki was 122 nM in assay [1], 1.9 nM in assay [2] and 4.8 nM in assay [3].

B5: SEQ ID NO: 1679 (peptide)
peptide: Ac-IW[Gly(1-adamantyl)]AQALR[R8]IGDAFN[S5]YYA-NH2
modifications: staple 9-16
SMILES: CC[C@H](C)[C@H](NC(C)=O)C(=O)N[C@@H](Cc1c[nH]c2ccccc12)C(=O)N[C@H](C(=O)N[C@@H](C)C(=O)N[C@@H](CCC(N)=O)C(=O)N[C@@H](C)C(=O)N[C@@H](CC(C)C)C(=O)N[C@@H](CCCNC(=N)N)C(=O)N[C@]1(C)CCCCCCC=CCCC[C@@](C)(C(=O)N[C@@H](Cc2ccc(O)cc2)C(=O)N[C@@H](Cc2ccc(O)cc2)C(=O)N[C@@H](C)C(N)=O)NC(=O)[C@H](CC(N)=O)NC(=O)[C@H](Cc2ccccc2)NC(=O)[C@H](C)NC(=O)[C@H](CC(=O)O)NC(=O)CNC(=O)[C@H]([C@@H](C)CC)NC1=O)C12CC3CC(CC(C3)C1)C2
notes: also called Ac-IWAdmAQALR$r8IGDAFN$YYA-NH2
Turning to B5, the inhibitory constant (Ki) in assay [1] stood at 21.6 nM; in assay [2], 7.3 nM; in assay [3], 59 nM.

B6: SEQ ID NO: 1669 (peptide)
peptide: Ac-IWIAQALR[R8]FGDAFN[S5]YYA-NH2
modifications: staple 9-16
SMILES: CC[C@H](C)[C@H](NC(C)=O)C(=O)N[C@@H](Cc1c[nH]c2ccccc12)C(=O)N[C@H](C(=O)N[C@@H](C)C(=O)N[C@@H](CCC(N)=O)C(=O)N[C@@H](C)C(=O)N[C@@H](CC(C)C)C(=O)N[C@@H](CCCNC(=N)N)C(=O)N[C@]1(C)CCCCCCC=CCCC[C@@](C)(C(=O)N[C@@H](Cc2ccc(O)cc2)C(=O)N[C@@H](Cc2ccc(O)cc2)C(=O)N[C@@H](C)C(N)=O)NC(=O)[C@H](CC(N)=O)NC(=O)[C@H](Cc2ccccc2)NC(=O)[C@H](C)NC(=O)[C@H](CC(=O)O)NC(=O)CNC(=O)[C@H](Cc2ccccc2)NC1=O)[C@@H](C)CC
Turning to B6, the Ki in assay [1] amounted to 27.8 nM; in assay [2] it was 15.8 nM; in assay [3], 68.5 nM.

B7: SEQ ID NO: 1671 (peptide)
peptide: Ac-IWFAQALR[R8]IGDAFN[S5]YYA-NH2
modifications: staple 9-16
SMILES: CC[C@H](C)[C@H](NC(C)=O)C(=O)N[C@@H](Cc1c[nH]c2ccccc12)C(=O)N[C@@H](Cc1ccccc1)C(=O)N[C@@H](C)C(=O)N[C@@H](CCC(N)=O)C(=O)N[C@@H](C)C(=O)N[C@@H](CC(C)C)C(=O)N[C@@H](CCCNC(=N)N)C(=O)N[C@]1(C)CCCCCCC=CCCC[C@@](C)(C(=O)N[C@@H](Cc2ccc(O)cc2)C(=O)N[C@@H](Cc2ccc(O)cc2)C(=O)N[C@@H](C)C(N)=O)NC(=O)[C@H](CC(N)=O)NC(=O)[C@H](Cc2ccccc2)NC(=O)[C@H](C)NC(=O)[C@H](CC(=O)O)NC(=O)CNC(=O)[C@H]([C@@H](C)CC)NC1=O
Take B7: the Ki in assay [1] stood at 22 nM; in assay [2] it was 28 nM; in assay [3] it was 179 nM.

B8: SEQ ID NO: 1676 (peptide)
peptide: Ac-IWIAQALR[R8]IGDQFA[S5]YYA-NH2
modifications: staple 9-16
SMILES: CC[C@H](C)[C@H](NC(C)=O)C(=O)N[C@@H](Cc1c[nH]c2ccccc12)C(=O)N[C@H](C(=O)N[C@@H](C)C(=O)N[C@@H](CCC(N)=O)C(=O)N[C@@H](C)C(=O)N[C@@H](CC(C)C)C(=O)N[C@@H](CCCNC(=N)N)C(=O)N[C@]1(C)CCCCCCC=CCCC[C@@](C)(C(=O)N[C@@H](Cc2ccc(O)cc2)C(=O)N[C@@H](Cc2ccc(O)cc2)C(=O)N[C@@H](C)C(N)=O)NC(=O)[C@H](C)NC(=O)[C@H](Cc2ccccc2)NC(=O)[C@H](CCC(N)=O)NC(=O)[C@H](CC(=O)O)NC(=O)CNC(=O)[C@H]([C@@H](C)CC)NC1=O)[C@@H](C)CC
With B8, the Ki is 22.8 nM in assay [1], 53.5 nM in assay [2] and 84.9 nM in assay [3].

B9: SEQ ID NO: 1677 (peptide)
peptide: Ac-IW[Cha]AQALR[R8]IGDAFN[S5]YYA-NH2
modifications: staple 9-16
SMILES: CC[C@H](C)[C@H](NC(C)=O)C(=O)N[C@@H](Cc1c[nH]c2ccccc12)C(=O)N[C@@H](CC1CCCCC1)C(=O)N[C@@H](C)C(=O)N[C@@H](CCC(N)=O)C(=O)N[C@@H](C)C(=O)N[C@@H](CC(C)C)C(=O)N[C@@H](CCCNC(=N)N)C(=O)N[C@]1(C)CCCCCCC=CCCC[C@@](C)(C(=O)N[C@@H](Cc2ccc(O)cc2)C(=O)N[C@@H](Cc2ccc(O)cc2)C(=O)N[C@@H](C)C(N)=O)NC(=O)[C@H](CC(N)=O)NC(=O)[C@H](Cc2ccccc2)NC(=O)[C@H](C)NC(=O)[C@H](CC(=O)O)NC(=O)CNC(=O)[C@H]([C@@H](C)CC)NC1=O
notes: also called Ac-IWChaAQALR$r8IGDAFN$YYA-NH2
As for B9, the Ki in assay [1] turned out to be 43.8 nM; in assay [2] it was 14.4 nM; in assay [3], 105 nM.

B10: SEQ ID NO: 1670 (peptide)
peptide: Ac-IWIAQALR[R8]FGDQFN[S5]YYA-NH2
modifications: staple 9-16
SMILES: CC[C@H](C)[C@H](NC(C)=O)C(=O)N[C@@H](Cc1c[nH]c2ccccc12)C(=O)N[C@H](C(=O)N[C@@H](C)C(=O)N[C@@H](CCC(N)=O)C(=O)N[C@@H](C)C(=O)N[C@@H](CC(C)C)C(=O)N[C@@H](CCCNC(=N)N)C(=O)N[C@]1(C)CCCCCCC=CCCC[C@@](C)(C(=O)N[C@@H](Cc2ccc(O)cc2)C(=O)N[C@@H](Cc2ccc(O)cc2)C(=O)N[C@@H](C)C(N)=O)NC(=O)[C@H](CC(N)=O)NC(=O)[C@H](Cc2ccccc2)NC(=O)[C@H](CCC(N)=O)NC(=O)[C@H](CC(=O)O)NC(=O)CNC(=O)[C@H](Cc2ccccc2)NC1=O)[C@@H](C)CC
In the case of B10, the Ki in assay [1] came to 74.1 nM; in assay [2], 25.6 nM; in assay [3], 66.1 nM.

B11: SEQ ID NO: 1674 (peptide)
peptide: Ac-IWIAQALR[R8]IGNAFN[S5]YYA-NH2
modifications: staple 9-16
SMILES: CC[C@H](C)[C@H](NC(C)=O)C(=O)N[C@@H](Cc1c[nH]c2ccccc12)C(=O)N[C@H](C(=O)N[C@@H](C)C(=O)N[C@@H](CCC(N)=O)C(=O)N[C@@H](C)C(=O)N[C@@H](CC(C)C)C(=O)N[C@@H](CCCNC(=N)N)C(=O)N[C@]1(C)CCCCCCC=CCCC[C@@](C)(C(=O)N[C@@H](Cc2ccc(O)cc2)C(=O)N[C@@H](Cc2ccc(O)cc2)C(=O)N[C@@H](C)C(N)=O)NC(=O)[C@H](CC(N)=O)NC(=O)[C@H](Cc2ccccc2)NC(=O)[C@H](C)NC(=O)[C@H](CC(N)=O)NC(=O)CNC(=O)[C@H]([C@@H](C)CC)NC1=O)[C@@H](C)CC
Consider B11, for which the Ki in assay [1] is 195 nM; in assay [2], 416 nM; in assay [3], 405 nM.
